Experimental data published in the DeepSol protein solubility set.

Assay: soluble on expression in E. coli; label from the status in PepcDB or PDB records
With “MGSDKIHHHHHHMKKMTILSAAVLMALGAPVAMAKVSEAEAAKLGAELTPQGAVKAGNADGSIPAWDGGITTAVAGYSQGMHHPDPFPTDKILFTITNANKAQYKDFLNPGQVKLFELYPETYKMNVYETRRTASVPQYVYDATKANATRAELIAQGNGISGATIGVPFPIPANGLEVIWNHVLRFRGVDLETNRSQASPTADGSYTLVETAEELRFEYSRPEITLDKLKETNTLFFFKQVVTQPARLAGTALLVKETMDQEALPRQAWTYNTGQRRVRKAPNIAFDTPGTVADGLRTTDDFDMFNGSPVRYNWELVGKKEMYIPYNDYKLHSDSLKYDQILKPGHINPDLVRWEKHRVWEVKATLKAGMRHIYKTRVFYIDEDSWQVSLTDMYDNRDELYRVANAHSINYYEVPTLWTTLEVFHDLQSRRYLAMGLDNEGRMYNFKANLTESNFTPDALRRAGIR” the “soluble on expression in E. coli” value was “not soluble”.
For “MSLKITKIETTLFEYKLDRSMGDANSPMGRKKGSGCVLELITDEGISGISIGGQNALPQINSIFDGILLNNDPKAIFSIWKRMVEKYFKGGHDGIANDAISAIDVALWDLKAKINEEPLWKTLGGNNNKVNVYASDIALPINDDDLFNWYSKMSDKFGFKGGKLKVGLDQESDLKRLELMHNALSKNCDDPILYVDSNEYWSPKQTIRNVSEMEERFTLGWIEEPARRWDFLGLKKVSDSLQTPVCAGENLDTLGDFLPYFHHRSADVIQVSHGMTGISGALQIADAAYALELPVTLGGSSGIIHAHIANAIPNCITVEVPHPEPETKVFTSDVTIKDGYAFVGNKPGMGIEVNYEELAKHKVEKVSQKAGPSPYGRRPGAGLYEIPPTKEEISEGQSKEGHHHHHH”, the “soluble on expression in E. coli” value was “soluble”.
For “MCGITGWVDWKEDLSNQHVILKKMANRIQHRGPDAEGFWFSPRAAFAHRRLIVIDPEGGAQPKTFRAGDYTYALTYNGEIYNFRELREQLQKCGHTFETHSDTEVLLHAYLEWKEDCVQHLNGIFAFALWDDQKQRLFLARDHLGVKPLFYTERNDSIIFGSEIKALLAHPSVPAEIDADGINEIFGLGLFRTPGCGVFKHIEEVRAGHSITFTRDKKVVTKYWNLESKVHTDSIEDTSSHILSILQDTVKRQLIADVPLVCMLSGGLDSSGITALAGKEFAAENKTLHTYSVDFVNSAKDFELTFARTGLDAPWVKRVSEHVGTSHHDIIVNAEELANHLFVPLRAKDLPSAGEMETSLYLLFCEMKKDATVALSGESADEVFGGYPWFHQEELLYVDKFPWLTNWKNTSPLLLHEISNQCNLENYIDTRFQEAILEVPTLEGESKKSAKQRQMFYLFLTRFLPFLLDRKDRMSMAVGFEVRVPFCDYRLVEYLWNVPFNIKSIDNIEKGILRRALKPALPDDVRNRRKSAYPTSQDPQYLQTIRHLSLDMCSNKNNPIFSLINHSTLLAIADGSNKEINNFEARSAMEYMLQVNEWLKTYHIHIA”, the “soluble on expression in E. coli” value was “not soluble”.
In the case of “MGSDKIHHHHHHMIKILLLIDYSSEFDRKLLRGLVQYSKENGPWLFYRLPSYYSGMYGEKGILKWAKEWKADAIIGQWNNDTVNLLKELNIPIVLQNYHHRSTTYSNLTGDYKGTGRMAAQFFAKRMFHNFAYFGINGVVWSDERCEGFRQEVKRIGGNFYCFESDKHEDEIRIEVSQWLQELPKPIALFCCDDSHALFISETCKISNIHIPEEISLLGVDNDDLICNISDPPISSIELEVERGGYSIGRLIHQQIKKEHEGTFNIVINPIRIELRQSTEKHNIKDPYILEVVKYIESHYNSDLTIESLLAQIPLSRRNFEVKFKNAMHTSIYQYILNCRVNHLADLLLTTDRSLADIATEAGFKDYNNISRIFKKFKGCSPLEYREKKITNR”, the “soluble on expression in E. coli” value is reported as “not soluble”.
With “MGSDKIHHHHHHMLLVFASCGVNKSTEDSKKTNETKVEQIATLSAGTPVQSLDPATAVDQTSVTLLANVMEGLYRLDEKNQPQPAIAAGQPKISNGGKTYTIVIRDGAKWADGTDITADDFVTAWQRVLDPKTASPNVELFAAIKNAKEISIGKQQKETLGVKSKGNKTIEIELEEPTPYFTDLLALTAYFPVQQNAVKEYGKEYGTTKENIVTNGAFTLTDLNGVGISDKWTIAKNPKYWDKKHVAMEKIKFQVVKDINTGINLYNDGQLDDAPVAGEYSKQLENNKDFIRELSATTMFLEVNQRNKKSITSNKHARQAINFAIDREAISNKILTNGSIPAKGVVPSKLVYNPKTGKDFTNSSLVFLDKSKAKDSWEKAKKELKGTDLSIDIMVNEEDLSKKLGEYLQNELQDTLDGLKVSVTAVPATLQTERLNSGNFMIALSGWQADFADPVSFLANFESKSSLNHGGYANEEYDKLLKNNSSKRLQELKDAEKLILEDAGVIPLLQIGNAKLRNQKISEMKVHSIGAKYDYKTMEIK” the “soluble on expression in E. coli” value was “not soluble”.
For “MESLYTSTLSEISEEEIVKGRIVSISNKDVTIDVGFKSEGIVSLLEFRDDDEIKVGDDVEVYLENIEDKMGQLILSKRKADVLRIWDKIYDSIENDTIINGKIINRVKGGMTVSLSGVEAFLPGSQIDVKPVRDFDALVGKTMDFRVVKINPVTQNIVVSHKVILEEEYAAKREEMLANIKVGMVLEGTVKNITDFGIFVDLGGLDGLVHITDITWGRINHPSEVVELDQPIKVVVVGFDENTKRVSLGMKQLEAHPWENIEIKYPVGIKATGRVVSITDYGAFVEIEKGIEGLVHISEMSWTQHIKHPSQFVSLNQEVEVVILNIDKEHTKLSLSMKRVSEDPWIALSEKYVEGSLHKGTVSNITDFGVFVELEPGVDGLVHISDLSWTKKIRHPSELVKKGQELEVKVLKFDVNARRIALGHKQINNDPWGEFEQKYAVGAECTGAISQIIEKGVIVILPGEVDGFVPVSHLLQGGVKDIHSSFKIGDELPLRVIEFDKENKRIILSALEYFKDKSKEEIEAYLQAHPNEKKEIEAASAELEPQPKGR”, the “soluble on expression in E. coli” value was “not soluble”.
With “MGSDKIHHHHHHMLGQRIKSLRKAKKLTQSDVADGIMTKSMLSMIENEKATPSLPALQSIAHRLHVSIDALLIDPRAVEMKQMIEKINSTASGYYAEGQIATMLEPYLEPAINSYWQGQIYYEYGSALRFSDTEKGLHYFDLAEDVFQQLGLRDEQIKVQISKVYFLFFLRRYEEAYRKIDGMMIFQDVPLAHETFLDYQMLQAIRVSVINDNWSQSIVFLREGIRYMREKGVYSDVSNYHRLLALFLSLEEDYEAAEFELEKLRHFFLFTEATALDQILVDLTKGSIAVHREDYAGIREARERLIEVEIEACLHYIGYFEVYLCLWNDSKEELTFDLPSAVSKIWRNAHLWRAGGEYDHAMMLYALAFAMQAGVGLDRQAEVEELTTQLSPGHFKQKIEQTLARLT” the “soluble on expression in E. coli” value was “not soluble”.
In the case of “MGSDKIHHHHHHMAVKVLSIDLGATNGKIYEVELKDRLTVKEIKRFRTEGTFLPGKDREHFVWNLPGFYEEIKGVLEASDAQSVGVDTWGVDFALLDENGRLVSLPYHYRDVRTKGVMKKAFEVVPKDEIFQRTGIQFMEINTLYQLYSMVLSNDPFLKTTKHLLMIPDVFNFWLSGEMVSEYTIASTSQCYSVPDGEWAYDLLEKLSIPTEIFPKVVPPGTILGKCRVKKGINVIATACHDTASAVVAVPLEGEGIYISSGTWFLVGTELERPLLSKEALERNFTNEGGYGKIRFLKNATGMWLLEECNRIWKKDYSEIIESVRNVPGFQAFLDPDREEFLHPGNMPERIRNYLERTGQKILERIGEISRLIFESLAFNCRWIVEQIKELTGKRYGKIHVVGGAVRNDLLMSFIASATGKTVVAGPVDATPIGNALVQLITLGAIANINEARKIVKESFELKTFEPKNPELWSEKYEEWRRYKGMRV”, the “soluble on expression in E. coli” value is reported as “not soluble”.
For “GVNPRGLGPLQIWQTDFTLEPRMAPRSWLAVTVDTASSAIVVTQHGRVTSVAVQHHWATAIAVLGRPKAIKTDNGSCFTSKSTREWLARWGIAHTTGIPGNSQGQAMVERANRLLKDRIRVLAEGDGFMKRIPTSKQGELLAKAMYALNHKERGENTKTPIQKHWRPTVLTEGPPVKIRIETGEWEKGWNVLVWGRGYAAVKNRDTDKVIWVPSRKVKPDITQKDEVTKKDEASPLFA”, the “soluble on expression in E. coli” value was “soluble”.
For “GMTYKDYTGLDRTELLSKVRHMMSDKRFNHVLGVERAAIELAERYGYDKEKAGLAALLHDYAKELSDDEFLRLIDKYQPDPDLKKWGNNIWHGLVGIYKIQEDLAIKDQDILAAIAKHTVGSAQMSTLDKIVYVADYIEHNRDFPGVEEARELAKVDLNKAVAYETARTVAFLASKAQPIYPKTIETYNAYIPYLD”, the “soluble on expression in E. coli” value was “soluble”.
With “VGDYGPFGFDPDEFDRVIREGSEGLRDAFERIGRFLSSSGAGTGWSAIFEDLSRRSRPAPETAGEAGDGVWAIYTVDADGGARVEQVYATELDALRANKDNTDPKRKVRFLPYGIAVSVLDDPVDEAQ” the “soluble on expression in E. coli” value was “soluble”.
